Data published in patent US20110256132A1 (published 2011).

B1: H1L2 (antibody, human IgG1, kappa)
heavy: not shown
light: DIQMTQSPSSLSASVGDRVTITCKASQDINSYLSWFQQKPGKAPKSLIYRANRLVDGVPSKFSGSGSGTDYTLTISSLQPEDFATYYCLQCDEFPLTFGQGTKLEIKRTVAAPSVFIFPPSDEQLKSGTASVVCLLNNFYPREAKVQWKVDNALQSGNSQESVTEQDSKDSTYSLSSTLTLSKADYEKHKVYACEVTHQGLSSPVTKSFNRGEC
notes: Humanised, human IgG1 wild type/kappa
B2: H2L2-C91S_V102N (antibody, human IgG1, kappa, name in Kabat numbering, V domains shown)
VH: QVQLVQSGAEVKKPGASVKVSCKASGYSFTGYFMHWVRQAPGQGLEWMGNIYPYNGVSNYNQRFKARVTMTTDTSTSTAYMELRSLRSDDTAVYYCARRYYYGTGPADWYFDNWGQGTLVTVSS
VL: DIQMTQSPSSLSASVGDRVTITCKASQDINSYLSWFQQKPGKAPKSLIYRANRLVDGVPSKFSGSGSGTDYTLTISSLQPEDFATYYCLQSDEFPLTFGQGTKLEIKR
B3: H2L2-C91S_G99D (antibody, human IgG1, kappa, name in Kabat numbering, V domains shown)
VH: QVQLVQSGAEVKKPGASVKVSCKASGYSFTGYFMHWVRQAPGQGLEWMGNIYPYNGVSNYNQRFKARVTMTTDTSTSTAYMELRSLRSDDTAVYYCARRYYYDTGPADWYFDVWGQGTLVTVSS
VL: DIQMTQSPSSLSASVGDRVTITCKASQDINSYLSWFQQKPGKAPKSLIYRANRLVDGVPSKFSGSGSGTDYTLTISSLQPEDFATYYCLQSDEFPLTFGQGTKLEIKR
B4: H2L2-C91S_P100B_I (antibody, human IgG1, kappa, V domains shown)
VH: QVQLVQSGAEVKKPGASVKVSCKASGYSFTGYFMHWVRQAPGQGLEWMGNIYPYNGVSNYNQRFKARVTMTTDTSTSTAYMELRSLRSDDTAVYYCARRYYYGTGIADWYFDVWGQGTLVTVSS
VL: DIQMTQSPSSLSASVGDRVTITCKASQDINSYLSWFQQKPGKAPKSLIYRANRLVDGVPSKFSGSGSGTDYTLTISSLQPEDFATYYCLQSDEFPLTFGQGTKLEIKR
B5: H2L2-C91S_G100A_K (antibody, human IgG1, kappa, V domains shown)
VH: QVQLVQSGAEVKKPGASVKVSCKASGYSFTGYFMHWVRQAPGQGLEWMGNIYPYNGVSNYNQRFKARVTMTTDTSTSTAYMELRSLRSDDTAVYYCARRYYYGTKPADWYFDVWGQGTLVTVSS
VL: DIQMTQSPSSLSASVGDRVTITCKASQDINSYLSWFQQKPGKAPKSLIYRANRLVDGVPSKFSGSGSGTDYTLTISSLQPEDFATYYCLQSDEFPLTFGQGTKLEIKR
B6: H2L2-C91S_Y96L (antibody, human IgG1, kappa, name in Kabat numbering, V domains shown)
VH: QVQLVQSGAEVKKPGASVKVSCKASGYSFTGYFMHWVRQAPGQGLEWMGNIYPYNGVSNYNQRFKARVTMTTDTSTSTAYMELRSLRSDDTAVYYCARRLYYGTGPADWYFDVWGQGTLVTVSS
VL: DIQMTQSPSSLSASVGDRVTITCKASQDINSYLSWFQQKPGKAPKSLIYRANRLVDGVPSKFSGSGSGTDYTLTISSLQPEDFATYYCLQSDEFPLTFGQGTKLEIKR
B7: H2L2-C91S_G99S (antibody, human IgG1, kappa, name in Kabat numbering, V domains shown)
VH: QVQLVQSGAEVKKPGASVKVSCKASGYSFTGYFMHWVRQAPGQGLEWMGNIYPYNGVSNYNQRFKARVTMTTDTSTSTAYMELRSLRSDDTAVYYCARRYYYSTGPADWYFDVWGQGTLVTVSS
VL: DIQMTQSPSSLSASVGDRVTITCKASQDINSYLSWFQQKPGKAPKSLIYRANRLVDGVPSKFSGSGSGTDYTLTISSLQPEDFATYYCLQSDEFPLTFGQGTKLEIKR
B8: H2L2-C91S_P100B_F (antibody, human IgG1, kappa, V domains shown)
VH: QVQLVQSGAEVKKPGASVKVSCKASGYSFTGYFMHWVRQAPGQGLEWMGNIYPYNGVSNYNQRFKARVTMTTDTSTSTAYMELRSLRSDDTAVYYCARRYYYGTGFADWYFDVWGQGTLVTVSS
VL: DIQMTQSPSSLSASVGDRVTITCKASQDINSYLSWFQQKPGKAPKSLIYRANRLVDGVPSKFSGSGSGTDYTLTISSLQPEDFATYYCLQSDEFPLTFGQGTKLEIKR
B9: H2L2-C91S_V102S (antibody, human IgG1, kappa, name in Kabat numbering, V domains shown)
VH: QVQLVQSGAEVKKPGASVKVSCKASGYSFTGYFMHWVRQAPGQGLEWMGNIYPYNGVSNYNQRFKARVTMTTDTSTSTAYMELRSLRSDDTAVYYCARRYYYGTGPADWYFDSWGQGTLVTVSS
VL: DIQMTQSPSSLSASVGDRVTITCKASQDINSYLSWFQQKPGKAPKSLIYRANRLVDGVPSKFSGSGSGTDYTLTISSLQPEDFATYYCLQSDEFPLTFGQGTKLEIKR
B10: H2L2 N54Q & C91S (H2L2-N54Q-C91S) (antibody, human IgG1, kappa, V domains shown)
VH: QVQLVQSGAEVKKPGASVKVSCKASGYSFTGYFMHWVRQAPGQGLEWMGNIYPYQGVSNYNQRFKARVTMTTDTSTSTAYMELRSLRSDDTAVYYCARRYYYGTGPADWYFDVWGQGTLVTVSS
VL: DIQMTQSPSSLSASVGDRVTITCKASQDINSYLSWFQQKPGKAPKSLIYRANRLVDGVPSKFSGSGSGTDYTLTISSLQPEDFATYYCLQSDEFPLTFGQGTKLEIKR

Columns and labels:
[1] = biological target: T1, mature myostatin (recombinant, dimeric) (mouse polyprotein used for in-house …, UniProt O08689 268-376); assay: BIAcore, low density myostatin surface, antibody analyte, 1:1 model
T1 construct: also called GDF-8; recombinant myostatin
T1 sequence: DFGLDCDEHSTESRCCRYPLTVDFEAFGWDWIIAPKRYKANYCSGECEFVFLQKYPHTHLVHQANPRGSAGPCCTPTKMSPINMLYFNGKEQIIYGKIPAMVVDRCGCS
Method: (§1) Purified H0L0, H1L2 and H2L2 bound recombinant myostatin by BIAcore™ Recombinant myostatin was immobilised at three different densities (low, medium and high, to give R-max values of approximately 35, 120 and 350 RU's respectively) onto a BIAcore™ chip. Antibodies were passed over at 256, 64, 16, 4 and 1 nM. 0 nM antibody was used for double referencing and data was fitted to the 1:1 model.

[2] = biological target: T1, mature myostatin (recombinant, dimeric); assay: BIAcore, high density myostatin surface, antibody analyte, 1:1 model (poor fits)
Method: as §1

[3] = biological target: T1, mature myostatin (recombinant, dimeric); assay: BIAcore, medium density myostatin surface, antibody analyte, 1:1 model (poor fits)
Method: as §1

[4] = biological target: T1, mature myostatin (recombinant, dimeric); assay: cell-based or functional assay
[5] = biological target: T1, mature myostatin (recombinant, dimeric); assay: competition ELISA, directly coated myostatin, competitor 10B3
Method: (§2) A 96-well ELISA plate was coated at 4° C. overnight with 2.5 μg/ml polyclonal Antibody to Myostatin (R&D Systems AF788). This plate was then washed 3-times in wash buffer (PBS, 0.1% Tween-20) and blocked for 1 hour at room temperature with block solution (PBS, 0.1% Tween-20+1% bovine serum albumin [BSA]). Then, myostatin was added at 1 μg/ml in block buffer during 1 hour followed by 3-times in wash buffer. Antibodies were then titrated out to a suitable concentration range (approximately 10 to 0.01 μg/ml), added to the plate and incubated for 1 hour at room temperature. The plate was then washed 3-times in wash buffer. An anti-human kappa light chain HRP-conjugated antibody (Sigma A7164, used according to the manufacturer's instructions) was used to detect binding of humanized or chimeric antibodies, such as 10B3 chimera (HcLc) or H0L0. The plate was then washed 3-times in wash buffer and developed with an OPD substrate (according to the manufacturer's instructions) and read at 490 nm on a plate reader.
The protocol set out in 6.7 was used but the plates were initially coated at 4° C. overnight with 0.2 μg/ml of myostatin (recombinant in-house, see 1.1 above). 10B3 (final concentration of 0.3 μg/ml) was added into each well and mixed with antibodies titrated out to a suitable concentration range (approximately 10 to 0.01 μg/ml). An anti-mouse HRP-conjugated antibody (DAKO P0260, used according to the manufacturer's instructions) was used to detect binding of the 10B3 antibody.

[6] = biological target: T1, mature myostatin (recombinant, dimeric); assay: BIAcore T100 full kinetics, high density myostatin surface, Bivalent model
Method: The CDRH3 variants were passed over all three surfaces at 256 nM, 64 nM, 16 nM, 4 nM, 1 nM with a buffer injection (i.e. 0 nM) used for double referencing, regeneration was using 100 mM phosphoric acid. The data was fitted to the Bivalent model inherent to the T100 Biacore machine and was run using HBS-EP at 25° C.

[7] = biological target: T1, mature myostatin (recombinant, dimeric); assay: competition ELISA, biotinylated myostatin on streptavidin, competitor 10B3
Method: as §2
The protocol set out in 6.7 was used but the plates were initially coated at 4° C. overnight with 5 μg/ml of streptavidin. Biotinylated myostatin was added at 0.3 μg/ml block buffer during 1 hour followed by 3-times in wash buffer. 10B3 (final concentration of 0.2 μg/ml) was added into each well and mixed with antibodies titrated out to a suitable concentration range (approximately 10 to 0.01 μg/ml). An anti-mouse HRP-conjugated antibody (DAKO P0260, used according to the manufacturer's instructions) was used to detect binding of the 10B3 antibody.

[8] = biological target: T1, mature myostatin (recombinant, dimeric); assay: competition ELISA, myostatin captured by polyclonal antibody, competitor 10B3
Method: as §2
The protocol set out in 6.7 was used with the addition of 10B3 (final concentration of […]) to each well and mixed with the antibodies titrated out to a suitable concentration range (approximately 10 to 0.01 μg/ml). An anti-mouse HRP-conjugated antibody (DAKO P0260, used according to the manufacturer's instructions) was used to detect binding of the 10B3 antibody.

[9] = biological target: T1, mature myostatin (recombinant, dimeric); assay: cell-based or functional assay; remark: listed apart in the source
[10] = biological target: T1, mature myostatin (recombinant, dimeric); assay: BIAcore, low density myostatin surface, methods as in 4.3

| Binder | Mean IC50, A204 in vitro activity assay (5 nM myostatin) [4] | ranking order top (1) to bottom (5), myostatin competition ELISA [5] | fold of affinity against F100G_Y [6] | ranking order top (1) to bottom (5), myostatin competition ELISA [7] | ranking order top (1) to bottom (5), myostatin competition ELISA [8] | further results |
| --- | --- | --- | --- | --- | --- | --- |
| B1 | – | – | – | – | – | Kd [1]: 15.1 nM; koff [1]: 0.00332 s⁻¹; kon [1]: 220000 M⁻¹ s⁻¹; Kd [2]: 2.42 nM; koff [2]: 0.000223 s⁻¹; kon [2]: 92200 M⁻¹ s⁻¹; Kd [3]: 5.06 nM; koff [3]: 0.000693 s⁻¹; kon [3]: 137000 M⁻¹ s⁻¹ |
| B2 | 5.51 nM | 3 | ≤ 2 fold | 4 | 2 | – |
| B3 | – | – | ≤ 2 fold | – | 5 | – |
| B4 | 4.53 nM | 5 | – | 3 | – | – |
| B5 | – | – | ≤ 2 fold | – | – | – |
| B6 | – | – | ≤ 2 fold | 5 | – | – |
| B7 | – | – | ≤ 2 fold | – | – | – |
| B8 | 4.24 nM | 1 | – | – | 1 | – |
| B9 | 4.22 nM | 4 | ≤ 2 fold | 1 | 3 | – |
| B10 | – | – | – | – | – | Mean IC50, A204 in vitro activity assay [9]: 10.4 nM; Kd [10]: 33.3 nM |
